Measurements published in patent publication US20060287243A1, “Stable pharmaceutical compositions including motilin-like peptides” (priority 2005, published 2006).
Square brackets hold non-standard residues; d marks the D form.

How the values were obtained:
Type in all cases: physicochemical
[1] = Stability of lyophilized formulations of motilin-like peptide, reconstituted in water (HPLC); conditions: 30 μg/ml in 10 mM citrate buffer, 1% w/v sucrose, pH 6.0, lyophilized, stored in 20 ml vial at 40° C. for several months (FIG. 5)
Experimental: The motilin-like peptide including SEQ ID NO.: 1 was dissolved at a concentration of 30 μg/ml in 10 mM citrate buffer and 1% w/v of sucrose (bulking agent) at pH 6.0. The composition was lyophilized by standard techniques and stored in a 20 ml vial at 40° C. The potency of the motilin-like peptide was measured at the time intervals indicated in FIG. 5, by reconstituting the composition in water. Potency was determined by using HPLC to measure the amount of undegraded peptide remaining in each sample. […] (Again, it will be appreciated by those skilled in the art that the stability of pharmaceutical compositions at elevated temperatures, such as 40° C. as in FIG. 5, may serve as the basis of prediction of stability for longer periods at more typical storage temperatures, such as approximately 20° C.-25° C. or 4° C.-8° C., for example).

[2] = Stability of motilin-like peptide following autoclaving and storage (HPLC, undegraded peptide remaining); conditions: 30 μg/ml in 10 mM sodium acetate buffer pH 5.0, Type I glass vials, autoclaved 121° C. 15 minutes, storage 3 months at 55° C. (FIG. 2)
Excerpt: A further advantage of the pharmaceutical composition of the present invention is its peptide stability when the composition is subjected to elevated temperatures such as the temperature of steam sterilization. Many peptides are inherently unstable and, when subjected to heat, are known to degrade very rapidly, typically in a few minutes or less. In contrast, in compositions of the present invention, the peptide substantially retains its stability (i.e., remains substantially undegraded and retains a substantial percentage of its initial potency), even after the composition is (1) subjected to steam sterilization (for at least 10 minutes and up to 60 minutes at temperatures of approximately 100° C.-128° C. and typically 121° C.), and (2) subsequently stored in a suitable container (described below) at lower temperatures typically encountered by a pharmaceutical composition, such as about 4° C.-5° C. to about 25° C.
The motilin-like peptide of SEQ ID NO.: 1 was dissolved at a concentration of 30 μg/ml in 10 mM sodium acetate buffer, pH 5.0. […] The potency of the peptide following storage at each temperature was measured over time by testing samples after incubation of one week, two weeks, three weeks, one month and three months. Potency was determined by using HPLC to measure the amount of undegraded peptide remaining in each sample. […]

[3] = Storage stability of aqueous buffered composition in Schott Type 1 vials
Excerpt: Some plastics have also proven to be effective in assisting in the stabilization of the peptide composition. In this regard, preferred plastics are cyclic olefin copolymers, available, for example, from West Pharmaceuticals under the product name CZ resin vials, or from Schott under the product name TopPac vials, or from Alcan packaging under the product name Ticona Topas serum vials. The compositions of the present invention may also be stored in PVC, as well as non-PVC flexible bags. When stored in the above described glass or plastic containers, the above-described storage times at the above-described storage temperatures can be achieved, although for storage periods of at least 18 months, Type I Plus (vapor treated silicon) vials and Type I Plus glass ampules are preferred. […] It will be appreciated by those skilled in the art that the measured stability of pharmaceutical compositions at elevated temperatures, such as 40° C. or higher, may serve as the basis of prediction of stability for longer periods at more typical storage temperatures, such as 20°-25° C. or 4°-8° C., for example. Such “accelerated storage” studies are common in the field of the present invention.

[4] = Long-term storage stability of the aqueous buffered composition; conditions: pH between approximately 3 and 9, preferably 4.8-5.2
Experimental: The aqueous pharmaceutical compositions of the present invention provides benefits previously unknown. The motilin-like peptide of pharmaceutical compositions of the present invention remains stable when stored over a wide range of temperatures for extended periods of time. For example, when stored at room temperature or its preferred lower storage temperature of 4° C.-5° C., substantial stability is maintained for significant periods of time. For example, at a storage temperature of approximately 25° C., the peptide contained in the composition of the present invention remains stable for at least 12 months, and more preferably at least approximately 18 months and, even more preferably, up to and even beyond approximately 24 months, retaining a potency of 90% or more as shown, for example, in FIG. 1. At a storage temperature of 5° C., storage with only marginal degradation (and a potency of at least 90-95%) of up to at least 18 months is regularly observed.
Whether prepared and stored as an aqueous unbuffered solution, an aqueous buffered solution, a ready-to-use or concentrated, or a lyophilized composition that is subsequently reconstituted, the pharmaceutical compositions of the present invention remains potent during storage for extended periods of time. […]

For “(Me3N)^+Phe-Val-Pro-Ile-Phe-Thr-Tyr-Gly-Glu-Leu-Gln-D-Arg-Leu-Lys-NH2 ({N,N,N‑trimethyl}-FVPIFTYGELQ[dR]LK-NH2) [SEQ ID NO.: 1, synthetic motilin-like peptide receptor agonist]”, which “potency retained (undegraded peptide remaining by HPLC)” value [1] is on record?
The value was “greater than 90%”.

What about the “potency retained (undegraded peptide remaining by HPLC)” value [2] of the same substance?
Its value is “greater than 90%”.

And the “stability (maintenance of potency)” value ([3]; 30 μg/ml, several months at 5° C. to 55° C. (FIG. 4))?
The value was “demonstrated stability”.

And the “stability (maintenance of potency)” value ([3]; approximately 5 μg/ml, several months at 5° C. to 55° C. (FIG. 3))?
Its value is “demonstrated stability”.

And the degradation during storage [4]?
The degradation during storage was “only minimal degradation”.
